Source: patent US20250026834A1 (ZOETIS SERVICES, published 2025)

Biological target: NGF (target protein of the anti-NGF antibodies mAb2 and mAb3)
Assay: cell-based or functional assay

NGF (target protein of the anti-NGF antibodies mAb2 and mAb3), sequence (P01138 122-241): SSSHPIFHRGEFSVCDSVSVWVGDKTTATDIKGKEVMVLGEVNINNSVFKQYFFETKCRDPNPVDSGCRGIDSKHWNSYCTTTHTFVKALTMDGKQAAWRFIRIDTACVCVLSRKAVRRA

IC50 (cell based potency assay): 0.036 nM
B1: mAb3 (felinized anti-NGF, ZTS-768) IgG1a WT (antibody, V domains shown)
VH: DVQLVESGGDLVKPGGSLRLTCVASGFTYSNYWMHWVRQAPGKGLQWVARIDPYGGGTKHNEKFKRRFTISRDNAKNTLYLQMNSLKTEDTATYYCVRSGYDYYFDVWGQGTLVTVSS
VL: EIQMTQSPSSLSASPGDRVTITCRASENIYSFLAWYQQKPGKVPKLLIYNANTLAEGVPSRFSGSGSGTDFTLTISSLEPEDAATYYCQHHFGTPFTFGSGTKLEIKR
